This series can be described thus: yeast display, Sf9 membrane polyspecificity reagent, FACS + sequencing; frameworks hold sequencing errors. In a few lines:
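Galactose-induced (36–48 hours) yeast carrying a synthetic nanobody display library were exposed to 10% biotinylated, detergent-solubilized Sf9 membrane reagent at 4 °C for 1 hour. FACS followed streptavidin microbead enrichment, using low and high (top ~1%) gates for expression (anti-HA) and reagent binding (streptavidin). Colony PCR, MiSeq 2 × 250 sequencing and CDR-length filtering followed. Labels for polyreactivity reflect the gate of origin.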
For the sequence “QVQLVESGGGLVQAGGSLRLSCAASGFILSFYTMGWYRQEPGKERELVAVISSRGGRTYYADSVKGRFTISRDNAKNTVYLQMNSLKPEDTAVYYCNKRYYFPKPFDYWGQGTQVTVSS”, the “polyreactivity (PSR sort gate)” value is given as “high polyreactivity”. As to “QVQLVESGGGLVQAGGSLRLSCAASGRTFSSYTMGWYRQAPGKEREMVAAISKSGASTYYADSVKGRFTISRDNAKNTVYLQMNSLKPEDTAVYYLAARAYPFKIDGYWGQGTQVTVSS”, the “polyreactivity (PSR sort gate)” value is recorded as “high polyreactivity”.

With “QVQLVESGGGLVQAGGSLRLSCAASGLIFPIYTMGWYRQAPGKERELVAAISSRGGSTYYADSVKGRFTISRDNAKNTVYLQMNSLKPEDTAVYYCAAQFRFSGMGYWGQGTQVTVSS”, the “polyreactivity (PSR sort gate)” value is recorded as “high polyreactivity”. For “QVQLVESGGGLVQAGASLRLSSAASGSTFSRYAMGWYRQAPGKEREFVADITFRTSSTNYADSVKGRFTISRDNAKNTVYLQMNSLKPEDTAVYDCAADVIFTWLAYSTEYDYWGQGSQVTVSS”, the “polyreactivity (PSR sort gate)” value is on record as “low polyreactivity”. Take “QVQLVESGGGLVQAGGSLRLSCAASGITFTVYAMGWYRQAPGKERELVAAITSTGSTNYAHSVKGRFTISRDNAKNTVYLLMNSLKPEDTAVYYCAADRQITVYAYDYWGQGTQVTVSS”: the “polyreactivity (PSR sort gate)” value was “low polyreactivity”. With “QVQLVESGGGLVQAGGSLRLSCAASVSTFQVYGMGWYREAPGKERELVAAISYSGGRTYYADSVKGRFTISRDNAKNTVYLQMNILKPEDTAVYYCNAVLAHDPRLDYWGQGTQVTVSS” the entry was “high polyreactivity”; with “QVQLVESGGGLVQAGGSLRLSCAASGSTIIRNAMGWSRQAPGKERELVAAISTSGGRTHYADSVKGRFTISRDNAKNTVYLQMNSLKPEDTAVYYCATRGKGHYYYWGQGTQVTVSS”, “high polyreactivity”; with “QVQLVESGGGLVQAGGSLRLTCAASGFTVHNKVMGWYRQAPGKERELVATISKSGGSTYYADSVKGRFTISRDNAKNTVYLEMNSLKPVDTAVYYCARRYGDYGRYGYWGQGTQVTVSS”, “high polyreactivity”. The result for “QVQLVESGGGLVQAGGSLRLSCAASGIIFINYAMGWYRQAPGKERELVAAINSGGSTKYADSEKGRFTISRDNAKNTVYLLMNSLKPEDTAVYDCAAVPAGRYYWWLYYYWGQGTQVTVSS” reads “high polyreactivity”; that for “QVQLVESGGGLVQAGGSLRLSCAASGFTFAFYAMGWYSPAPGKVRELVAAISWDGVTTYYADSVKGRFTISRDNAKNTVYLQMNSLKPEDTAVYYCAADYPDYAASFWPSGMYYWGQGTQVTVSS”, “low polyreactivity”; that for “QVQLVESGGGLVQAGGSLRLSCAASGSTFAGYVMGWYRQAPGKERELVAAISRSGGSTYYADSVKGRFTISRDNAKNTVYLQMNSLKPEDTAVYYCAARNSPGLPGDYWGQGTQVTVSS”, “high polyreactivity”. In the case of “QGQLVESGGGLVQAGGSLRLSCAASGRTFKYNVMGWYRQAPGKERELVAAISSGGGTNYADSVKGRFTISRDNAKNTVDLQMNSLKPEDTAVYYCAAKYAWRLLEMYYWGQGTQVTVSS”, the “polyreactivity (PSR sort gate)” value is “low polyreactivity”.

In the case of “QVQLVESGGGLVQAGGSLRLSCAASGLIFRVYAMGWYRQAPGKERELVATITRGGRTYYADSVKGRFTISRDNAKNTVYLQMNSLKPEDTAVYYCAVLSVRRSYNYWGQGTQVTVSS”, the “polyreactivity (PSR sort gate)” value is given as “high polyreactivity”. The result for “QVQLVESGRGLVQAGGSLRLSCAASGRIFRYYTMGCYRQAPGKERELVASITYRGTSTYYADSVKGRFTISRDNAKNTVYLQMTSLKPEDTAVYYCNKDLFFRSISSKYDYWGQGTQVTVSS” reads “high polyreactivity”; that for “QVQLVESGGCLVQAGGSLRLSCAASGRIFDRNAMGWYRQAPGKERELVARIDPGDDTNYADSVKGRFTISRDNAKNTVYLQMNSLKPEDTAVYYCATDPDYVLYRTAYYEYDYWGQGTQVTVSS”, “low polyreactivity”. With “QVQLVESGGGLVQAGGSLRLSCAASGINFAYNAMGWYRQAPGKERELVATITDSGGSTSYADSVKGRFTISRDNAKNTVYLQMNSLKPEDTAVYYCAVLPVYWYWRNYVYLSGYDYWGQGTQVTVSS” the entry was “low polyreactivity”.

These data come from the nanobody polyreactivity screen of Harvey et al. (2022).
